# Assay results taken from patent US20120164137A1 (MORPHOTEK, published 2012).
# B1: MORAb-003 anti-FRA antibody reference standard (antibody, human IgG1, kappa, V domains shown)
# VH: EVQLVESGGGVVQPGRSLRLSCSASGFTFSGYGLSWVRQAPGKGLEWVAMISSGGSYTYYADSVKGRFAISRDNAKNTLFLQMDSLRPEDTGVYFCARHGDDPAWFAYWGQGTPVTVSS
# VL: DIQLTQSPSSLSASVGDRVTITCSVSSSISSNNLHWYQQKPGKAPKPWIYGTSNLASGVPSRFSGSGSGTDYTFTISSLQPEDIATYYCQQWSSYPYMYTFGQGTKVEIKR
# modifications: N-linked neutral glycans at Asn299 in SEQ ID NO: 5
# B2: MORAb-003 anti-FRA antibody, lot NB809-65 (positive control; harvested 13 days after initiation of culture) (antibody, human IgG1, kappa, V domains shown)
# VH: B1 VH
# VL: B1 VL
# modifications: N-linked neutral glycans at Asn299 in SEQ ID NO: 5
# notes: also called Pos. ctl; positive control (round 2)
# B3: MORAb-003 anti-FRA antibody, lot NB810-12 (low temperature; harvested 14 days after initiation of culture) (antibody, human IgG1, kappa, V domains shown)
# VH: B1 VH
# VL: B1 VL
# modifications: N-linked neutral glycans at Asn299 in SEQ ID NO: 5
# B4: MORAb-003 anti-FRA antibody, lot NB859-25 (harvested 14 days after initiation of culture) (antibody, human IgG1, kappa, V domains shown)
# VH: B1 VH
# VL: B1 VL
# modifications: N-linked neutral glycans at Asn299 in SEQ ID NO: 5
# notes: also called Day 14 harvest; positive control (round 3)
# B5: MORAb-003 anti-FRA antibody, lot NB859-27 (harvested 20 days after initiation of culture) (antibody, human IgG1, kappa, V domains shown)
# VH: B1 VH
# VL: B1 VL
# modifications: N-linked neutral glycans at Asn299 in SEQ ID NO: 5
# notes: also called Day 20 harvest
# B6: MORAb-003 anti-FRA antibody, lot NB809-67 (low DO; harvested 13 days after initiation of culture) (antibody, human IgG1, kappa, V domains shown)
# VH: B1 VH
# VL: B1 VL
# modifications: N-linked neutral glycans at Asn299 in SEQ ID NO: 5
# B7: MORAb-003 anti-FRA antibody, lot NB810-11 (galactose supplement; harvested 14 days after initiation of culture) (antibody, human IgG1, kappa, V domains shown)
# VH: B1 VH
# VL: B1 VL
# modifications: N-linked neutral glycans at Asn299 in SEQ ID NO: 5
# B8: MORAb-003 anti-FRA antibody, lot NB809-69 (10 mM Na butyrate; harvested 13 days after initiation of culture) (antibody, human IgG1, kappa, V domains shown)
# VH: B1 VH
# VL: B1 VL
# modifications: N-linked neutral glycans at Asn299 in SEQ ID NO: 5
# B9: MORAb-003 anti-FRA antibody, lot NB859-26 (harvested 17 days after initiation of culture) (antibody, human IgG1, kappa, V domains shown)
# VH: B1 VH
# VL: B1 VL
# modifications: N-linked neutral glycans at Asn299 in SEQ ID NO: 5
# notes: also called Day 17 harvest
# B10: MORAb-003 anti-FRA antibody, lot NB859-24 (harvested 10 days after initiation of culture) (antibody, human IgG1, kappa, V domains shown)
# VH: B1 VH
# VL: B1 VL
# modifications: N-linked neutral glycans at Asn299 in SEQ ID NO: 5
# notes: also called Day 10 harvest
# B11: MORAb-003 anti-FRA antibody, lot NB810-10 (positive control; harvested 14 days after initiation of culture) (antibody, human IgG1, kappa, V domains shown)
# VH: B1 VH
# VL: B1 VL
# modifications: N-linked neutral glycans at Asn299 in SEQ ID NO: 5
# notes: also called Pos. ctl; positive control (round 1)
# B12: MORAb-003 anti-FRA antibody, lot NB809-66 (0.5 mM Na butyrate; harvested 13 days after initiation of culture) (antibody, human IgG1, kappa, V domains shown)
# VH: B1 VH
# VL: B1 VL
# modifications: N-linked neutral glycans at Asn299 in SEQ ID NO: 5
# B13: MORAb-003 anti-FRA antibody, lot NB810-13 (high osmolarity; harvested 14 days after initiation of culture) (antibody, human IgG1, kappa, V domains shown)
# VH: B1 VH
# VL: B1 VL
# modifications: N-linked neutral glycans at Asn299 in SEQ ID NO: 5
# B14: MORAb-003 anti-FRA antibody, lot NB859-28 (low DO; harvested 14 days after initiation of culture) (antibody, human IgG1, kappa, V domains shown)
# VH: B1 VH
# VL: B1 VL
# modifications: N-linked neutral glycans at Asn299 in SEQ ID NO: 5
# notes: also called low DO (round 3)
# B15: MORAb-003 anti-FRA antibody, lot NB809-70 (CuCl supplement; harvested 13 days after initiation of culture) (antibody, human IgG1, kappa, V domains shown)
# VH: B1 VH
# VL: B1 VL
# modifications: N-linked neutral glycans at Asn299 in SEQ ID NO: 5
# B16: MORAb-003 anti-FRA antibody, lot NB809-68 (high CO2; harvested 13 days after initiation of culture) (antibody, human IgG1, kappa, V domains shown)
# VH: B1 VH
# VL: B1 VL
# modifications: N-linked neutral glycans at Asn299 in SEQ ID NO: 5
# What was measured:
# [1] = target: T1, Human FRA on IGROV-1 human ovarian adenocarcinoma cells (human, UniProt P15328 25-234); assay: cell-based or functional assay
# T1 sequence (P15328 25-234 limits assumed): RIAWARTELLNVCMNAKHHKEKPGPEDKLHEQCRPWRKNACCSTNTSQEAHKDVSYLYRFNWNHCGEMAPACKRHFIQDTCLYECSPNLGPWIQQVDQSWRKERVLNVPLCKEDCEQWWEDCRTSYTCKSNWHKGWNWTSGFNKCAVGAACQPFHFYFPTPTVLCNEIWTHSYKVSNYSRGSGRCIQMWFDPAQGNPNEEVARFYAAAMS
# [2] = target: T1, Human FRA on IGROV-1 human ovarian …; assay: cell-based or functional assay; remark: listed apart in the source
# [3] = target: T1, Human FRA on IGROV-1 human ovarian …; assay: cell-based or functional assay; remark: listed apart in the source
# [4] = target: T2, Recombinant human folate receptor alpha (FRA) (human, UniProt P15328 25-234); assay: SPR, FRA on CM5 chip, parallel line analysis; reference standard = 100%
# T2 construct: Immobilised on a CM5 chip by amine coupling; also called FR-alpha
# T2 sequence (P15328 25-234 limits assumed): as above
# Experimental: The surface was regenerated between cycles by flushing with 10 mM glycine pH 2.0.
Binder,IC50 (Hum-ZAP secondary immunotoxin killing of IGROV-1 cells) [1] [ng·mL],Internalization IC50 [2] [µg/mL],INTL % (0 Min) [3] [%],INTL % (15 min) [3] [%],INTL % (30 min) [3] [%],INTL % (60 min) [3] [%],INTL % (150 min) [3] [%],Half-Maximal Internalization Constant [2] [min],Measured Potency (%) [4] [%]
B1,14,0.014,,,,,,,
B2,14,0.014,0,3,13,33,52,51.7,49.7
B3,25,0.025,0,3,21,39,55,41.2,87.3
B4,32,0.032,0,1,20,44,61,42,51.9
B5,23,0.023,0,1,19,40,51,37.3,53.3
B6,29,0.029,0,3,14,34,53,50.7,56.2
B7,19,0.019,0,3,6,29,50,56.6,84.7
B8,24,0.024,0,4,14,36,56,51.2,49.3
B9,36,0.036,0,,23,43,56,36.6,27.5
B10,15,0.015,0,1,18,40,58,44.6,33.8
B11,1630,1.63,0,4,9,32,56,58.4,85.5
B12,15,0.015,0,3,8,31,50,53.5,61.5
B13,990,0.99,0,,17,40,62,49.6,72.6
B14,,,0,,19,44,53,36.5,44.5
B15,27,0.027,0,6,16,37,58,53.3,48
B16,28,0.028,0,4,14,36,52,46.5,50.5
